Experiment [1] has as its target T1, human prolactin receptor (PRLR) expressed on cells (human) (UniProt P16471).
T1 sequence: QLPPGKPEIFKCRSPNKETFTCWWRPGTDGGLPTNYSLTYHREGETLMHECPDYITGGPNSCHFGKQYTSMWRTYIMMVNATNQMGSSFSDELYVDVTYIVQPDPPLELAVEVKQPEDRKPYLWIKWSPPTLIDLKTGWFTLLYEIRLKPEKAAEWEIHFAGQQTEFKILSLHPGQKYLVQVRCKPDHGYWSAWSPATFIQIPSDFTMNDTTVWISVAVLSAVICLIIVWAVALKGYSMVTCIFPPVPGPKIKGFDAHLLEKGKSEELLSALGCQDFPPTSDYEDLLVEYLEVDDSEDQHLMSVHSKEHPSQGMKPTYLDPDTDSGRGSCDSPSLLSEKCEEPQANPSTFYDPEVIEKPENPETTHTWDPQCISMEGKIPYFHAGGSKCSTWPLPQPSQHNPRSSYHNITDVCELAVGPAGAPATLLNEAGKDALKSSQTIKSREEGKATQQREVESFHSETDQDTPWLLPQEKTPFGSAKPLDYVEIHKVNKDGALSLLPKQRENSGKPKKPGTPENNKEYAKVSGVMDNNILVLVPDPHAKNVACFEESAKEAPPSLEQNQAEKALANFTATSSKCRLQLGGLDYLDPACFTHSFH
Nature of the experiment: flow cytometry on CHO-K1 cells expressing human PRLR (clone 1G5). (In general: In flow cytometry, cells or beads pass a laser one at a time.)

In experiment [2] the target is T1, human prolactin receptor (PRLR) expressed on cells (human). Nature of the experiment: cell-based or functional assay.

As to “mAb 1167, control murine anti-PRLR monoclonal antibody (R&D Systems, catalog # MAB 1167)”, the MFI in experiment [1] came to 33.8 MFI.

B1: XHA.06.983 (antibody, from another filing, V domains shown)
VH: DVQLVESGGGLVQPGGSRKLSCAASGFAFSSFGMQWVRQAPEKGLEWVAYISSGSSTIYYADTVKGRFTISRDNPKNTLFLQMTSLRSEDTAMYYCVRSGRDYWGQGTSVTVSS
VL: SIVMTQTPKFLLVSAGDRVTITCKASQGVSNDVAWFQQKPGQSPKLLIYSASTRYTGVPDRLTGSGYGTDFTFTINTVQAEDLAVYFCQQDYTSPTFGGGTKLEIKR
In the case of B1, the pERK1/2 inhibition IC50 in experiment [2] was determined as 0.11.

For the origin of these results see patent US20150175705A1.
